The results in this text go back to patent US20250277030A1, “ANTI-NAPI2B ANTIBODIES AND METHODS OF USE” (Zymeworks BC Inc., priority 2022, published 2025).

The test system of one data set is NCI-H441 cells. Description: Internalization by flow cytometry in NCI-H441 cells. It counts as cell-based, human. To be noted: antibody 10 nM. On the procedure:
Briefly, antibodies were fluorescently labeled by coupling to a Fab fragment AF488 conjugate targeting anti-Human IgG Fe (Jackson Immuno Research Labs, West Grove, PA; Cat. No. 109-547-008) at a 1:1 molar ratio in PBS pH 7.4 (Thermo Fisher Scientific, Waltham, MA; Cat. No. 10010-023), for 24 hours at 4° C. Cells were seeded at 50,000 cells/well in RPMI 1640, ATCC modification (Thermo Fisher Scientific, Waltham, MA) supplemented with 10% fetal bovine serum (Thermo Fisher Scientific, Waltham, MA) in 48-well plates and incubated overnight under standard culturing conditions (37° C./5% CO2) to allow attachment. […] Following incubation, cells were dissociated, washed, and surface AF488 fluorescence was quenched using an anti-AF488 antibody (Life Technologies, Carlsbad, CA; Cat. No. A-11094) at 100 nM for 30 minutes at 4° C. […] (internalized fluorescence) was detected by flow cytometry on a BD LSRFortessa™ Cell Analyzer (BD Biosciences, Franklin Lake, NJ) with 1,000 minimum events collected per well. The AF488/FITC-A GeoMean (fluorescence signal geometric mean, proportional to anti-Human Fab AF488 labelling) was calculated for the live single cell population using FlowJo™ Version 10.8.1 (BD Biosciences, Franklin Lake, NJ) and plotted using GraphPad Prism Version 9 (GraphPad Software, San Diego, CA).

Data set [1] can be described thus: AC-SINS self-aggregation propensity. To be noted: 0.05 mg/mL in PBS pH 7.4; cutoff 10 nm = high self-aggregation propensity. It counts as physicochemical. On the procedure: The isoelectric point was measured by capillary isoelectric focusing (cIEF), the propensity for self-aggregation was measured by Affinity-capture self-interaction nanoparticle spectroscopy (AC-SINS) and non-specific binding was measured by NS-ELISA, as described below.
AC-SINS method was carried out in a 384-well plate format (Corning®#3702). Initially, 20 nm gold nanoparticles (Ted Pella, Inc., #15705) washed with 0.22 μm filtered Gibco™ Distilled Water were coated with a mixture of capture antibody—80% AffiniPure Goat Anti-Human IgG (H+L) (Jackson ImmunoResearch Laboratories® #109-005-088), and the non-capture antibody −20% ChromPure Goat IgG, whole molecule (Jackson ImmunoResearch Laboratories® #005-000-003), that were initially buffer exchanged into 20 mM sodium acetate pH 4.3 and diluted to 0.4 mg/mL. […] The absorbance was read from 450-700 nm at 1 nm increments, and a Microsoft Excel macro was used to identify the max absorbance, smooth the data, and fit the data using a second-order polynomial. The Alambda (nm) was calculated based on the smoothed max absorbance of the average blank (PBS alone) subtracted from the smoothed max absorbance of the antibody sample to determine the antibody AC-SINS score. Antibody-antibody interactions directly correlate with the shift in maximum absorbance wavelength of gold nanoparticles coated with the antibody of interest. […]

A further data set concerns cynomolgus NaPi2b. In words: Flow cytometry binding to HEK293-6e cells transfected with cynomolgus NaPi2b (Example 5). To be noted: transfected HEK293-6e cells. Here is the method:
The binding cross-reactivity of humanized antibody variant v29456 to human, cynomolgus and mouse NaPi2b was assessed by flow cytometry using HEK293-6e transfected cells.
Briefly, HEK293-6e cells were transfected for ˜24 hours to transiently express human NaPi2b, cynomolgus or mouse NaPi2b, at 1 μg of DNA per 1 million cells. Following transfection, 50,000 cells per well were seeded in V-bottom 96-well plates and incubated with 200 nM of primary antibody for 18-24 hours at 4° C. to prevent internalization. Post-incubation, cells were washed and stained with anti-Human IgG Fc AF647 conjugate (Jackson Immuno Research Labs, West Grove, PA, Cat. No. 109-605-098, Lot. No. 124868) at 4° C. for 1 hour. Following staining and washing, fluorescence was detected by flow cytometry on BD LSRFortessa™ Cell Analyzer (BD Biosciences, Franklin Lake, NJ) with 10,000 minimum events collected per well. The AF647/APC-A GeoMean (fluorescence signal geometric mean, proportional to anti-Human AF647 binding) was calculated for the live singlet cell population for each primary antibody using FlowJo™ v8 software (BD Biosciences, Franklin Lake, NJ). The Bmax and Kd of each primary antibody were calculated using GraphPad Prism Version 9 (GraphPad Software, San Diego, CA)

Chain of cynomolgus NaPi2b (as listed by the source): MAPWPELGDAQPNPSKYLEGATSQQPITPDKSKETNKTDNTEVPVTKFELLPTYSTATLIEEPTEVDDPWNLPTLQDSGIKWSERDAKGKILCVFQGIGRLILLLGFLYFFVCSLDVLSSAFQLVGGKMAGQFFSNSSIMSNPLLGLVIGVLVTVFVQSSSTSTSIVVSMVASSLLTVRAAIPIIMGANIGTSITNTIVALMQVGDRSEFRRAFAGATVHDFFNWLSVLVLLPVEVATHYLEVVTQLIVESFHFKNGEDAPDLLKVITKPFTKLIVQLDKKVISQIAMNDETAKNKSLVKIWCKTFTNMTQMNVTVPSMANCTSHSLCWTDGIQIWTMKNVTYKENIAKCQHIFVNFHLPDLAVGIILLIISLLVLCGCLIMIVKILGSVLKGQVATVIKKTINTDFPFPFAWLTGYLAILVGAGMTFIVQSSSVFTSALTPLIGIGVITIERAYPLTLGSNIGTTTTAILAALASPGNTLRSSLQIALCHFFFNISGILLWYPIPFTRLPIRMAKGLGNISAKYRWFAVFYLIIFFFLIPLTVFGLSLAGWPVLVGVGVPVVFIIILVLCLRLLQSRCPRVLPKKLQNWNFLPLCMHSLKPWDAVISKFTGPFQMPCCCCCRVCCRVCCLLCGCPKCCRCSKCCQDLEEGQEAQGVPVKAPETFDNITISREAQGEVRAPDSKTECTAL

B1: v29456: humanized anti-NaPi2b IgG1/kappa antibody H1L2; VH SEQ ID NO:24, VL SEQ ID NO:29 (antibody, V domains shown)
VH: QVQLVQSGAEVKKPGASVKVSCKASGFTFTSYNVHWVRQAPGQGLEWMGAISPGNGDLSYAQKFQGRVTMTRDTSTSTVYMELSSLRSEDTAVYYCARGRTGMGAVDYWGQGTLVTVSS
VL: DVQMTQSPSSLSASVGDRVTITCRASQDVYSYLNWYQQKPGKAVKLLIYYTSRLQSGVPSRFSGSGSGTDYTLTISSLQPEDFATYYCQQYNIFPWTFGQGTKLEIK
modifications: v29452, v29456, v29460 VH (H1); v29453, v29454, v29455, v29456 VL (L2)
As to B1, the “Internalized Fluorescence Fold-Over Palivizumab” value is on record as 2.4 fold in the data set on NCI-H441 cells (NCI-H441, 5 hrs) and 4.0 fold in the data set with NCI-H441 cells (NCI-H441, 24 hrs). The “AC-SINS Δlambda (nm)” value in data set [1] turned out to be 2.5 nm. Further, the “apparent Kd on cynomolgus NaPi2b, fold lower than v18992 (MX35)” value with cynomolgus NaPi2b came to 10 fold. In the data set on cynomolgus NaPi2b (18-24 hours at 4° C.), the “Bmax (APC-A GeoMean), Cyno NaPi2b” value is 2,006 APC-A GeoMean. In addition, the Kd in the data set on cynomolgus NaPi2b (18-24 hours at 4° C., highest antibody concentration 200 nM, read-out: Apparent Kd (nM), Cyno NaPi2b) turned out to be 3.2 nM.
